From US20080020405A1, “Protein binding determination and manipulation” (priority 2002, published 2008)

Target: T1, WT SCCE (Stratum Corneum Chymotryptic Enzyme) (Homo sapiens, UniProt P49862)
T1 construct: made in house; host or cells: High 5 insect cells, transient transfection with pIE1-153A V4+ plasmid, protein secreted into the medium, Ni-NTA purified
Experiment: Panning of the 6mer tandem phage peptide display library against WT SCCE, four rounds, clones sequenced
Assay type: binding
Details: for Hypervarible Domain, DNA sequence of clone, 6 mer Lib Panning Round 4 SCCE WT / Hypervarible Domain, peptide sequence of clone, 6 mer Lib Panning Round 4 SCCE WT: 6mer library, panning round 4 against SCCE WT; for Hypervarible Domain, DNA sequence of clone, 6 mer Lib Panning Round 4 SCCE WT: flanking TGC (Cys) codons; for Hypervarible Domain, peptide sequence of clone, 6 mer Lib Panning Round 4 SCCE WT: translated hexapeptide
Method: Packaging of Phagemids from Cells • 1. Re-suspend the complete lawns of the E. coli cells in 20 ml of LB/Amp/Tc medium and use 2 ml for inoculation of 50 ml LB/Amp/Tc medium (250 ml Erlenmeyer flask). • 1. Incubate at 180 rpm and 37° C. for 1 hour, add […] of M13K07 stock solution (10^11-10^12 cfu/ml) and incubate for 15 minutes at 37° C. without shaking. • 2. Allow the culture to shake at 37° C. for 45 min, then add Kanamycin (final concentration of 50 μg/ml) and continue the incubation at 37° C. @ 180 rpm overnight. • 3. The next day, centrifuge for 15 minutes at 8,000 rpm and 4° C. (GS3 rotor, Sorvall RC5C). • 4. Transfer the supernatant into a new centrifuge bottle and centrifuge again. • 5. Transfer the supernatant again, add 0.15 vol of PEG/NaCl solution, mix and incubate on ice for at least 2 hours. • 6. Centrifuge for 40 minutes at 8,000 rpm (GS3 rotor) • 7. Decant the supernatant, repeat the centrifugation for 1 minute at 4,000 rpm and remove last traces of supernatant using a pipet. • 8. Re-suspend each PEG-pellet in 1.0 ml PBS solution and collect the re-suspended phages in one SS34 centrifuge bottle • 9. To clear the suspension, centrifuge again for 10 minutes at 12,000 rpm (SS34 rotor). • 10. Recover the supernatant (pipet), add NaN3 to a final concentration of 0.02% and store the library at 4° C. Determination of Phagemid (Library) Titer (Colony Forming Units [CFU] Assay) • 1. Inoculate 20 ml of LB/Tc (20 μg/ml) medium with 200 μl of an E. coli WK6λmutS overnight culture (37° C.; LB/Tc) and incubate at 37° C. and 180 rpm for 2 to 3 hours (OD600=0.5) • 2. Fill 12 wells of a sterile 96-well culture dish with 90 μl of autoclaved water and prepare dilution series by transferring 10 μl aliquots of the library stock (dilutions 10^−1 to 10^−12). • 3. Add 100 μl of logarithmic growing cells, mix and incubate for 30 min at 37° C. • 4. Spot 20 μl portions of each well on LB/Amp/Tc agar plates and incubate over night at 37° C. • 5. As a control use 20 μl of non-infected log-phase cells spotted on LB/Amp/Tc and LB/Tc agar plates. • 6. Count the number of colonies on the next day and determine the titer. Panning Protein Targets • WT SCCE is the Stratum Corneum Chymotryptic Enzyme subdloned in the pIE vector and adapted with a carboxy-terminal polyglycine linker and polyhistidine sequence to facilitate purification and immobilization (see WT SCCE preparation below). The adaptations were performed using a QuickChange mutagenesis kit. The sequence is listed in document SCCE His6 pIE.doc. • Fyn SCCE is the Stratum Corneum Chymotryptic Enzyme adapted with a polyglycine liker, the Fyn SH3 domain and additional polyglycine linker and a polyhistidine sequence (see Fyn SCCE preparation below). The final sequence is listed in document SCCE FYN His6 pIE.doc. The modifications to create Fyn SCCE were performed using WT SCCE as a template using a QuickChange mutagenesis kit. • The expression and purification of WT SCCE and Fyn SCCE are presented in document SCCE production.doc Pre-Adsorption of Library with Matrix to Remove Non-Specific Binding • 1. Take 25 μl Ni-NTA Magnetic Agarose Beads (Qiagen) in a 1.5 ml tube (siliconized), labeled pre-adsorption library. • 2. Place in Magnet and remove Sup. • 3. Wash 2 times (2 min each time) with 500 μl Ni-NTA Binding Buffer (50 mM NaH2PO4 pH8.0, 300 mM NaCl, 10 mM Imidazole) to equilibrate beads to Immidizole. • 4. Add 200 μl TBS-T 0.1% BSA+200 μl (10^12 phage) of 6mer library to tube labeled pre-adsorption library (to remove phage that stick non-specifically to the beads). • 5. Incubate @ room temperature for 1 h w/rotation. Coating Matrix with Target Protein • 6. Take 25 μl Ni-NTA Magnetic Agarose Beads (Qiagen) in 2 separate 1.5 ml Ep tubes (siliconized), labeled SSCE-WT and SCCE-FYN. • 7. Place in Magnet and remove Sup. • 8. Wash 2 times (2 min each time) with (500 μl) Ni-NTA Binding Buffer (50 mM NaH2PO4 pH8.0, 300 mM NaCl, 10 mM Imidazole) to equilibrate beads to Immidizole. • 9. […]

T1 sequence (P49862 30-253): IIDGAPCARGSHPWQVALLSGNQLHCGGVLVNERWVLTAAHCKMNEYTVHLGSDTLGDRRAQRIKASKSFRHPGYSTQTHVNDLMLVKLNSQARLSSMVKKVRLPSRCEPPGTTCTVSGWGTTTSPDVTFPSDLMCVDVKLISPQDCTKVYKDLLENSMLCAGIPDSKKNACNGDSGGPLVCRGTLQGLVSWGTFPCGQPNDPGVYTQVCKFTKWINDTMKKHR

| Substance | Hypervarible Domain, DNA sequence of clone, 6 mer Lib Panning Round 4 SCCE WT | Hypervarible Domain, peptide sequence of clone, 6 mer Lib Panning Round 4 SCCE WT | Clone sequence also found in the other panning (remark) (panning round 4 SCCE WT) |
| --- | --- | --- | --- |
| 041307_3 (QPHTWK; printed: Gln Pro His Thr Trp Lys) | TGCCAGCCGCATACGTGGAAGTGC | Gln Pro His Thr Trp Lys | (Also in SCCE FYN) |
| 041307_4 (TAAVDQ; printed: Thr Ala Ala Val Asp Gln) | TGCACGGCTGCGGTGGATCAGTGC | Thr Ala Ala Val Asp Gln | – |
| 041307_5 (KQNSEA; printed: Lys Gln Asn Ser Glu Ala) | TGCAAGCAGAATAGTGAGGCGTGC | Lys Gln Asn Ser Glu Ala | – |
| 041307_7 (PVAETP; printed: Pro Val Ala Glu Thr Pro) | TGCCCTGTGGCGGAGACGCCTTGC | Pro Val Ala Glu Thr Pro | – |
| 041307_8 (TPNSAI; printed: Thr Pro Asn Ser Ala Ile) | TGCACGCCTAATTCTGCGATTTGC | Thr Pro Asn Ser Ala Ile | – |
| 041307_10 (SHVRRN; printed: Ser His Val Arg Arg Asn) | TGCAGTCATGTTAGGCGTAATTGC | Ser His Val Arg Arg Asn | – |
| 041307_11 (HHGLIV; printed: His His Gly Leu Ile Val) | TGCCATCATGGGCTTATTGTGTGC | His His Gly Leu Ile Val | – |
| 041307_12 (YAKTMR; printed: Tyr Ala Lys Thr Met Arg) | TGCTATGCGAAGACGATGCGGTGC | Tyr Ala Lys Thr Met Arg | – |
| 041307_17 (HHGLIV; printed: His His Gly Leu Ile Val) | TGCCATCATGGGCTTATTGTGTGC | His His Gly Leu Ile Val | – |
| 041307_18 (HHGLIV; printed: His His Gly Leu Ile Val) | TGCCATCATGGGCTTATTGTGTGC | His His Gly Leu Ile Val | – |
| 041307_19 (HHGLIV; printed: His His Gly Leu Ile Val) | TGCCATCATGGGCTTATTGTGTGC | His His Gly Leu Ile Val | – |
| 041307_22 (HHGLIV; printed: His His Gly Leu Ile Val) | TGCCATCATGGGCTTATTGTGTGC | His His Gly Leu Ile Val | – |
| 041307_25 (TPKAKP; printed: Thr Pro Lys Ala Lys Pro) | TGCACTCCTCTGGCGCTTCCTTGC | Thr Pro Lys Ala Lys Pro | – |
| 041307_27 (KKKKTK; printed: Lys Lys Lys Lys Thr Lys) | TGCAAGAAGAAGAAGACGAAGTGC | Lys Lys Lys Lys Thr Lys | – |
| 041307_29 (HHGLIV; printed: His His Gly Leu Ile Val) | TGCCATCATGGGCTTATTGTGTGC | His His Gly Leu Ile Val | – |
| 041307_30 (PNNKIR; printed: Pro Asn Asn Lys Ile Arg) | TGCCCGAATAATAAGATTAGGTGC | Pro Asn Asn Lys Ile Arg | – |
| 041307_31 (TSTRPP; printed: Thr Ser Thr Arg Pro Pro) | TGCACTTCTACTAGGCCTCCTTGC | Thr Ser Thr Arg Pro Pro | – |
| 041307_32 (HMNMYI; printed: His Met Asn Met Tyr Ile) | TGCCATATGAATATGTATATTTGC | His Met Asn Met Tyr Ile | – |
| 041307_35 (TGAGRS; printed: Thr Gly Ala Gly Arg Ser) | TGCACGGGGGCGGGGCGGTCGTGC | Thr Gly Ala Gly Arg Ser | – |
